Test results from patent US20180155451A1 (published 2018).

B1: GpH7-B3 variant S337_02A/GpL16-k0 (antibody, human IgG1, kappa)
heavy: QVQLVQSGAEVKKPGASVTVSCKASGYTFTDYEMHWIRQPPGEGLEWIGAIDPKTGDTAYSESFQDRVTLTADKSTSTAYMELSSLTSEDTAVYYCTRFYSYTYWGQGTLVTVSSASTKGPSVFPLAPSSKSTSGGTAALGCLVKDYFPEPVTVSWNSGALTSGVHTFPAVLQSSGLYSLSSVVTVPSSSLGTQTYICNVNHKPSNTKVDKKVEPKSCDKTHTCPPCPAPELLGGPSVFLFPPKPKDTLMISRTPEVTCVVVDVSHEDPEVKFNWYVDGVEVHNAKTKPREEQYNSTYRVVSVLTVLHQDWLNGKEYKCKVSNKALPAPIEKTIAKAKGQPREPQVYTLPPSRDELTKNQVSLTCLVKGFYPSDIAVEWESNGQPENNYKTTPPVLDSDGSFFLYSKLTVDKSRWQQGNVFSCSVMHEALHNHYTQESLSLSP
light: DIVMTQSPLSLPVTPGEPASISCQASESLVHSNRNTYLHWYLQKPGQSPQLLIYKVSNRFSGVPDRFSGSGSGTDFTLKISRVEAEDVGVYYCSQNTHVPPTFGQGTKVEIERTVAAPSVFIFPPSDEQLKSGTASVVCLLNNFYPREAKVQWKVDNALQSGNSQESVTEQDSKDSTYSLSSTLTLSKADYEKHKVYACEVTHQGLSSPVTKSFNRGEC
notes: homodimerized; mutation in both H chains; also called Ho Ab
B2: GpH7-B3 variant P331_02A/GpL16-k0 (antibody, human IgG1, kappa)
heavy: not shown
light: B1 light
notes: as for B1
B3: GpH7-B3 variant K334_02A/GpL16-k0 (antibody, human IgG1, kappa)
heavy: not shown
light: B1 light
notes: as for B1
B4: GpH7-B3 variant H268_01G/GpL16-k0 (antibody, human IgG1, kappa)
heavy: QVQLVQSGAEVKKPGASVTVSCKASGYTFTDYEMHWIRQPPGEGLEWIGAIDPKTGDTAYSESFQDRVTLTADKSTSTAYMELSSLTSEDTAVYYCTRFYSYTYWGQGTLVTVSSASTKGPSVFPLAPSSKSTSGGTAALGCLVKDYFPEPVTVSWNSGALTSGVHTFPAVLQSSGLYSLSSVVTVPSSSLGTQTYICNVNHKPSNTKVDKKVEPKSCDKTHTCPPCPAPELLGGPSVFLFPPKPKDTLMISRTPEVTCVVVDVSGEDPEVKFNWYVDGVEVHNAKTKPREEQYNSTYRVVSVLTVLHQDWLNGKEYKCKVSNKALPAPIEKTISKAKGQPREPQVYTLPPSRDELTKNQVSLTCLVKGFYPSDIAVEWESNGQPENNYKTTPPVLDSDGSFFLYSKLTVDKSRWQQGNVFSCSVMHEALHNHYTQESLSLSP
light: B1 light
notes: as for B1
B5: GpH7-B3 variant P331_15Y/GpL16-k0 (antibody, human IgG1, kappa)
heavy: not shown
light: B1 light
notes: as for B1
B6: GpH7-B3 variant K326_04F/GpL16-k0 (antibody, human IgG1, kappa)
heavy: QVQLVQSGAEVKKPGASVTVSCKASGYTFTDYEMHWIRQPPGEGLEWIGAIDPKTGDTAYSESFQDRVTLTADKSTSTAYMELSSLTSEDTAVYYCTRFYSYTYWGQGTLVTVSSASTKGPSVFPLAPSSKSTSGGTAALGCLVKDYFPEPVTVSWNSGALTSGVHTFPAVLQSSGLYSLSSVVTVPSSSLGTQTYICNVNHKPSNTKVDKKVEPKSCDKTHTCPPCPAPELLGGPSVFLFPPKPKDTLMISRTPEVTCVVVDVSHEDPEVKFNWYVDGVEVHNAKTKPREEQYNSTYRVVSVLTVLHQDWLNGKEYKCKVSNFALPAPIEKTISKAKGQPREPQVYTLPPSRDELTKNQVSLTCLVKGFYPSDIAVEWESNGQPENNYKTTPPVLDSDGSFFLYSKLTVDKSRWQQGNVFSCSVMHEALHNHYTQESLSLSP
light: B1 light
notes: as for B1
B7: GpH7-B3 variant K326_07I/GpL16-k0 (antibody, human IgG1, kappa)
heavy: not shown
light: B1 light
notes: as for B1
B8: GpH7-B3 variant G237_20W/GpL16-k0 (antibody, human IgG1, kappa)
heavy: not shown
light: B1 light
notes: as for B1
B9: GpH7-B3 variant K334_10E/GpL16-k0 (antibody, human IgG1, kappa)
heavy: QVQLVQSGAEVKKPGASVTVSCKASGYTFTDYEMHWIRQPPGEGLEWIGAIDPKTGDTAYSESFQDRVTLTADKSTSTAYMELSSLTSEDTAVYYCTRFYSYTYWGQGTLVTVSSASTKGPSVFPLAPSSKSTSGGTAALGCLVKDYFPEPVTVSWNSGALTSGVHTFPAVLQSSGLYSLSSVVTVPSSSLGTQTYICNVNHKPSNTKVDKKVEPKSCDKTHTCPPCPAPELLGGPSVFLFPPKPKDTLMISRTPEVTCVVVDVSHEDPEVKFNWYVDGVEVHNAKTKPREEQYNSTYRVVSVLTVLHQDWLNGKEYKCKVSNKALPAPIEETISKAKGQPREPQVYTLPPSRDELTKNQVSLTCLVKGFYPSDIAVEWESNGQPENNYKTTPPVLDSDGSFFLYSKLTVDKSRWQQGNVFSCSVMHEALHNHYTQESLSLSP
light: B1 light
notes: as for B1
B10: GpH7-B3 variant K334_05P/GpL16-k0 (antibody, human IgG1, kappa)
heavy: not shown
light: B1 light
notes: as for B1
B11: GpH7-B3 variant P331_16H/GpL16-k0 (antibody, human IgG1, kappa)
heavy: not shown
light: B1 light
notes: as for B1
B12: GpH7-B3 variant K334_08L/GpL16-k0 (antibody, human IgG1, kappa)
heavy: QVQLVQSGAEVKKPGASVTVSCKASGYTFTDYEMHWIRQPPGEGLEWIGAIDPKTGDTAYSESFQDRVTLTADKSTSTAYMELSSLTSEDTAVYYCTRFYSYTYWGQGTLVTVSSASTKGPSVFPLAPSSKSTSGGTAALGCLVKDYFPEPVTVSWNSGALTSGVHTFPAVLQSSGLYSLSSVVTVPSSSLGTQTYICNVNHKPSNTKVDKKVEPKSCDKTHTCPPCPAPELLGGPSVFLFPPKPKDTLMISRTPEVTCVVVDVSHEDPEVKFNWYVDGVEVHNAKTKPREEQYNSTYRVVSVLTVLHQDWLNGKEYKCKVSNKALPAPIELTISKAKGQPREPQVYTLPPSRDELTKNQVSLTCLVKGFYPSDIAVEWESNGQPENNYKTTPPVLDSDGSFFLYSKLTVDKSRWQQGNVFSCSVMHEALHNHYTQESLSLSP
light: B1 light
notes: as for B1
B13: GpH7-B3 variant L328_13S/GpL16-k0 (antibody, human IgG1, kappa)
heavy: not shown
light: B1 light
notes: as for B1
B14: GpH7-B3 variant P331_04F/GpL16-k0 (antibody, human IgG1, kappa)
heavy: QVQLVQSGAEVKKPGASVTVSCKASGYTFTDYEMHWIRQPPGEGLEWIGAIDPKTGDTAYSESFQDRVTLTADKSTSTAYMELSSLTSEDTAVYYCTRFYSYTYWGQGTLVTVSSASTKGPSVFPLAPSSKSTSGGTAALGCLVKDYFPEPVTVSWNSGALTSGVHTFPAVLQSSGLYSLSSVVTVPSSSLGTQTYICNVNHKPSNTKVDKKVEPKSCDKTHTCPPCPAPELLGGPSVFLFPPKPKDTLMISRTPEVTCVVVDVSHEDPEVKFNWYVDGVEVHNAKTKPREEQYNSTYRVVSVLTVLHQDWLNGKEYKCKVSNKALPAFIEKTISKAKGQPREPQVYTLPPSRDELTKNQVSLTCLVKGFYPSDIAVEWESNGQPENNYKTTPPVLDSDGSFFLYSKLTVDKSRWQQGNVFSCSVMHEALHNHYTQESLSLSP
light: B1 light
notes: as for B1
B15: GpH7-B3 variant L328_14T/GpL16-k0 (antibody, human IgG1, kappa)
heavy: not shown
light: B1 light
notes: as for B1
B16: GpH7-B3 variant I336_08L/GpL16-k0 (antibody, human IgG1, kappa)
heavy: not shown
light: B1 light
notes: as for B1
B17: GpH7-B3 variant G237_04F/GpL16-k0 (antibody, human IgG1, kappa)
heavy: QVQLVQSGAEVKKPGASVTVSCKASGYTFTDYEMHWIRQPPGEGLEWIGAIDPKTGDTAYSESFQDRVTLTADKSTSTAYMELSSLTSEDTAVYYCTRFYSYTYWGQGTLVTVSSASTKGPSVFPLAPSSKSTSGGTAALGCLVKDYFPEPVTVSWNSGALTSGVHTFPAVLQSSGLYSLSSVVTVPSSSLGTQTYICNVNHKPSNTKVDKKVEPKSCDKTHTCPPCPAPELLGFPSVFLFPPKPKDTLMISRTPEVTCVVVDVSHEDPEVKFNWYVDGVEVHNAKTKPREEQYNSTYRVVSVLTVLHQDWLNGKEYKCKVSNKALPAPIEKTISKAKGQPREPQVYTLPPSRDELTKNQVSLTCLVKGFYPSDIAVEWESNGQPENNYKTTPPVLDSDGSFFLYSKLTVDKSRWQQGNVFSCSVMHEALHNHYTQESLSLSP
light: B1 light
notes: as for B1
B18: GpH7-B3 variant A327_09D/GpL16-k0 (antibody, human IgG1, kappa)
heavy: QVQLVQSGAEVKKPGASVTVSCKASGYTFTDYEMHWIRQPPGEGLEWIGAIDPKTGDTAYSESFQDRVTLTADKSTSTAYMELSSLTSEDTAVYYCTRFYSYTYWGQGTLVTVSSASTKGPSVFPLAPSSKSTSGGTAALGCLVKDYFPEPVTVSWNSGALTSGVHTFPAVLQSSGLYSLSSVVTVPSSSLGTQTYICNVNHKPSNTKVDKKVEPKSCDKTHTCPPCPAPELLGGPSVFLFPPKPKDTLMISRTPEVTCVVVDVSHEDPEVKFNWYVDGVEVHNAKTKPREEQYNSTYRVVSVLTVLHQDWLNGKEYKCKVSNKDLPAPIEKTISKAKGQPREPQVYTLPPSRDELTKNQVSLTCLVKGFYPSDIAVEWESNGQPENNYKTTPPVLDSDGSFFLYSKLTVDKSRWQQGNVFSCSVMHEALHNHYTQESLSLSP
light: B1 light
notes: as for B1
B19: GpH7-B3 variant K334_04F/GpL16-k0 (antibody, human IgG1, kappa)
heavy: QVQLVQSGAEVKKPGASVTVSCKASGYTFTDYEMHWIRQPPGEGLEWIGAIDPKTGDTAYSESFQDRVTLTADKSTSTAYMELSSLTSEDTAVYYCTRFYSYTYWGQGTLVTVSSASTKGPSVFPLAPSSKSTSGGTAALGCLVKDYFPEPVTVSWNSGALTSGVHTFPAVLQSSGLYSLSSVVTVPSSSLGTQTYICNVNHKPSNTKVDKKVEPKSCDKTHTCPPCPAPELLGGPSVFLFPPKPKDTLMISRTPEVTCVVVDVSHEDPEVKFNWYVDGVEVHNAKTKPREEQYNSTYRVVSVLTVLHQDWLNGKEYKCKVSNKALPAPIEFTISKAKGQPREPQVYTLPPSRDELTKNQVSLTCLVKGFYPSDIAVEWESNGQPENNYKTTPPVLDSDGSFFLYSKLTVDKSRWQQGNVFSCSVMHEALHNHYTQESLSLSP
light: B1 light
notes: as for B1
B20: GpH7-B3 variant A330_01G/GpL16-k0 (antibody, human IgG1, kappa)
heavy: not shown
light: B1 light
notes: as for B1
B21: GpH7-B3 variant I332_06M/GpL16-k0 (antibody, human IgG1, kappa)
heavy: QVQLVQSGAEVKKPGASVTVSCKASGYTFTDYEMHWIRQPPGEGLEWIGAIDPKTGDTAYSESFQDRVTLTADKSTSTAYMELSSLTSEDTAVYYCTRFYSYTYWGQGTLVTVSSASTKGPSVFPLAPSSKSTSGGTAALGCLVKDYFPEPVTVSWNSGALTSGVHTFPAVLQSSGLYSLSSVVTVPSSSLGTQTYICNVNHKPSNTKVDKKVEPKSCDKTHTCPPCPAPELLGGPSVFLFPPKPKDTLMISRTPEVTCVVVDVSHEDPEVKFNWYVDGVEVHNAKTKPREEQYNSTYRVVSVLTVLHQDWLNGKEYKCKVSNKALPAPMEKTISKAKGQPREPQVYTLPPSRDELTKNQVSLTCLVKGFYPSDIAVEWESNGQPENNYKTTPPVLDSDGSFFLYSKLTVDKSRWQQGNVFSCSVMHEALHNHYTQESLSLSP
light: B1 light
notes: as for B1
B22: GpH7-B3 variant K334_19Q/GpL16-k0 (antibody, human IgG1, kappa)
heavy: not shown
light: B1 light
notes: as for B1
B23: GpH7-B3 variant K326_15Y/GpL16-k0 (antibody, human IgG1, kappa)
heavy: not shown
light: B1 light
notes: as for B1
B24: GpH7-B3 variant K326_08L/GpL16-k0 (antibody, human IgG1, kappa)
heavy: not shown
light: B1 light
notes: as for B1
B25: GpH7-B3 variant P238_04F/GpL16-k0 (antibody, human IgG1, kappa)
heavy: not shown
light: B1 light
notes: as for B1
B26: GpH7-B3 variant P238_03V/GpL16-k0 (antibody, human IgG1, kappa)
heavy: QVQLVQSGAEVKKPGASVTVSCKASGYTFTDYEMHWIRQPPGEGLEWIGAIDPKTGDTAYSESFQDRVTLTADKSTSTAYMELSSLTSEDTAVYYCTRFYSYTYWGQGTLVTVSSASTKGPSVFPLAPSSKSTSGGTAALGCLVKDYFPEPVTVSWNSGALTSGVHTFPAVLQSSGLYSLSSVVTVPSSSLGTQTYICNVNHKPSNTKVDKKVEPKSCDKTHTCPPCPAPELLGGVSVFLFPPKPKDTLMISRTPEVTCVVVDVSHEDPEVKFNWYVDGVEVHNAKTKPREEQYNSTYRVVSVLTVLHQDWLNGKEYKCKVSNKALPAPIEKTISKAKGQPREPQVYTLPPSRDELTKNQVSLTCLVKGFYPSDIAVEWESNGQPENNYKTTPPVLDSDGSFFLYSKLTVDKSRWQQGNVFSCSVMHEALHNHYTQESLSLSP
light: B1 light
notes: as for B1
B27: GpH7-B3 variant K326_20W/GpL16-k0 (antibody, human IgG1, kappa)
heavy: not shown
light: B1 light
notes: as for B1
B28: GpH7-B3 variant K334_13S/GpL16-k0 (antibody, human IgG1, kappa)
heavy: not shown
light: B1 light
notes: as for B1

Target: T1, FcγRIIa R (extracellular domain with a His tag at the C terminus) (human, UniProt P12318 34-217)
T1 construct: extracellular domain; expressed in FreeStyle293 cells; also called FcgRIIa R; FcγRIIa type R; not shown: His tag at the C terminus
T1 sequence (looked up): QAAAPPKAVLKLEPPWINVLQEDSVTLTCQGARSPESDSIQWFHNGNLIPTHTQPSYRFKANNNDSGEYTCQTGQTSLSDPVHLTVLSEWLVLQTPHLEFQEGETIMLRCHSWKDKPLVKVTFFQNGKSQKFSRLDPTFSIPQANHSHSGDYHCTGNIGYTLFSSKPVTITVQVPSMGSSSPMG
Experiment: SPR Biacore, relative binding

Q: With B1 as the binder, how does the Ho/Con_2aR read?
A: 102 % of GpH7-B3/GpL16-k0 (=100)

Q: With B2 as the binder, how does the Ho/Con_2aR read?
A: 102 % of GpH7-B3/GpL16-k0 (=100)

Q: With B3 as the binder, how does the Ho/Con_2aR read?
A: 100 % of GpH7-B3/GpL16-k0 (=100)

Q: With B4 as the binder, how does the Ho/Con_2aR read?
A: 122 % of GpH7-B3/GpL16-k0 (=100)

Q: With B5 as the binder, how does the Ho/Con_2aR read?
A: 105 % of GpH7-B3/GpL16-k0 (=100)

Q: B6 was tested. Which Ho/Con_2aR did it give?
A: 133 % of GpH7-B3/GpL16-k0 (=100)

Q: For B7, which Ho/Con_2aR is on record?
A: 133 % of GpH7-B3/GpL16-k0 (=100)

Q: With B8 as the binder, how does the Ho/Con_2aR read?
A: 107 % of GpH7-B3/GpL16-k0 (=100)

Q: B9 was tested. Which Ho/Con_2aR did it give?
A: 106 % of GpH7-B3/GpL16-k0 (=100)

Q: With B10 as the binder, how does the Ho/Con_2aR read?
A: 102 % of GpH7-B3/GpL16-k0 (=100)

Q: Which Ho/Con_2aR does the source give for B11 here?
A: 100 % of GpH7-B3/GpL16-k0 (=100)

Q: B12 was tested. Which Ho/Con_2aR did it give?
A: 105 % of GpH7-B3/GpL16-k0 (=100)

Q: With B13 as the binder, how does the Ho/Con_2aR read?
A: 108 % of GpH7-B3/GpL16-k0 (=100)

Q: How did the Ho/Con_2aR turn out when B14 was run?
A: 106 % of GpH7-B3/GpL16-k0 (=100)

Q: How did the Ho/Con_2aR turn out when B15 was run?
A: 118 % of GpH7-B3/GpL16-k0 (=100)

Q: With B16 as the binder, how does the Ho/Con_2aR read?
A: 105 % of GpH7-B3/GpL16-k0 (=100)

Q: How did the Ho/Con_2aR turn out when B17 was run?
A: 113 % of GpH7-B3/GpL16-k0 (=100)

Q: B18 was tested. Which Ho/Con_2aR did it give?
A: 120 % of GpH7-B3/GpL16-k0 (=100)

Q: How did the Ho/Con_2aR turn out when B19 was run?
A: 110 % of GpH7-B3/GpL16-k0 (=100)

Q: With B20 as the binder, how does the Ho/Con_2aR read?
A: 106 % of GpH7-B3/GpL16-k0 (=100)

Q: For B21, which Ho/Con_2aR is on record?
A: 105 % of GpH7-B3/GpL16-k0 (=100)

Q: For B22, which Ho/Con_2aR is on record?
A: 108 % of GpH7-B3/GpL16-k0 (=100)

Q: How did the Ho/Con_2aR turn out when B23 was run?
A: 134 % of GpH7-B3/GpL16-k0 (=100)

Q: How did the Ho/Con_2aR turn out when B24 was run?
A: 131 % of GpH7-B3/GpL16-k0 (=100)

Q: How did the Ho/Con_2aR turn out when B25 was run?
A: 146 % of GpH7-B3/GpL16-k0 (=100)

Q: B26 was tested. Which Ho/Con_2aR did it give?
A: 116 % of GpH7-B3/GpL16-k0 (=100)

Q: For B27, which Ho/Con_2aR is on record?
A: 120 % of GpH7-B3/GpL16-k0 (=100)

Q: B28 was tested. Which Ho/Con_2aR did it give?
A: 106 % of GpH7-B3/GpL16-k0 (=100)
